From FireProtDB come the findings set out here.

Values joined by “and” are separate entries in the source; they are usually repeats but may differ in a detail not shown here. Equal entries are not always repeated.

First the molecules themselves.
B1: Tryptophan synthase alpha chain, P0A877 (parent)
chain: MERYESLFAQLKERKEGAFVPFVTLGDPGIEQSLKIIDTLIEAGADALELGIPFSDPLADGPTIQNATLRAFAAGVTPAQCFEMLALIRQKHPTIPIGLLMYANLVFNKGIDEFYAQCEKVGVDSVLVADVPVEESAPFRQAALRHNVAPIFICPPNADDDLLRQIASYGRGYTYLLSRAGVTGAENRAALPLNHLVAKLKEYNAAPPLQGFGISAPDQVKAAIDAGAAGAISGSAIVKIIEQHINEPEKMLAALKVFVQPMKAATRS
B2: Triosephosphate isomerase, P00943 (parent)
chain: MRKPIIAGNWKMHKTLAEAVQFVEDVKGHVPPADEVISVVCAPFLFLDRLVQAADGTDLKIGAQTMHFADQGAYTGEVSPVMLKDLGVTYVILGHSERRQMFAETDETVNKKVLAAFTRGLIPIICCGESLEEREAGQTNAVVASQVEKALAGLTPEQVKQAVIAYEPIWAIGTGKSSTPEDANSVCGHIRSVVSRLFGPEAAEAIRIQYGGSVKPDNIRDFLAQQQIDGPLVGGASLEPASFLQLVEAGRHE
B3: Alpha-amylase, P29957 (parent)
chain: MKLNKIITTAGLSLGLLLPSIATATPTTFVHLFEWNWQDVAQECEQYLGPKGYAAVQVSPPNEHITGSQWWTRYQPVSYELQSRGGNRAQFIDMVNRCSAAGVDIYVDTLINHMAAGSGTGTAGNSFGNKSFPIYSPQDFHESCTINNSDYGNDRYRVQNCELVGLADLDTASNYVQNTIAAYINDLQAIGVKGFRFDASKHVAASDIQSLMAKVNGSPVVFQEVIDQGGEAVGASEYLSTGLVTEFKYSTELGNTFRNGSLAWLSNFGEGWGFMPSSSAVVFVDNHDNQRGHGGAGNVITFEDGRLYDLANVFMLAYPYGYPKVMSSYDFHGDTDAGGPNVPVHNNGNLECFASNWKCEHRWSYIAGGVDFRNNTADNWAVTNWWDNTNNQISFGRGSSGHMAINKEDSTLTATVQTDMASGQYCNVLKGELSADAKSCSGEVITVNSDGTINLNIGAWDAMAIHKNAKLNTSSASSTESDWQRTVIFINAQTQSGQDMFIRGGIDHAYANANLGRNCQTSNFECAMPIRHNNLKNVTTSPWKANDNYLDWYGIENGQSSEAEGSATDWTTNVWPAGWGAEKTVNTDGFGVTPLNIWGEHYWMLDVDMDCSKAVNGWFELKAFIKNGQGWETAIAQDNAPYTSTNHMAQCGKINKFEFNNSGVVIRSF
B4: AP-4 complex subunit mu-1, O00189 (parent)
chain: MISQFFILSSKGDPLIYKDFRGDSGGRDVAELFYRKLTGLPGDESPVVMHHHGRHFIHIRHSGLYLVVTTSENVSPFSLLELLSRLATLLGDYCGSLGEGTISRNVALVYELLDEVLDYGYVQTTSTEMLRNFIQTEAVVSKPFSLFDLSSVGLFGAETQQSKVAPSSAASRPVLSSRSDQSQKNEVFLDVVERLSVLIASNGSLLKVDVQGEIRLKSFLPSGSEMRIGLTEEFCVGKSELRGYGPGIRVDEVSFHSSVNLDEFESHRILRLQPPQGELTVMRYQLSDDLPSPLPFRLFPSVQWDRGSGRLQVYLKLRCDLLSKSQALNVRLHLPLPRGVVSLSQELSSPEQKAELAEGALRWDLPRVQGGSQLSGLFQMDVPGPPGPPSHGLSTSASPLGLGPASLSFELPRHTCSGLQVRFLRLAFRPCGNANPHKWVRHLSHSDAYVIRI

Variants of B1 are the subject of the first series. The note with it: Escherichia coli (strain K12); pH 7.8; 25 °C; Urea; Fluorescence; Potassium phosphate 10 mM; reversible: yes; structure 1WQ5; whole UniProt chain shown.
As for MERYESLFAQLKERKEGAFVPFVTLGDPGIEQSLKIIDTLIEAGADALELGIPFSDPLADGPTIQNATLRAFAAGVTPAQCFEMLALIRQKHPTIPIGLLMYANLVFNKGIDEFYAQCEKVGVDSVLVADVPVEESAPFRQAALRHNVAPIFICPPNADDDLLRQIASYGRGYTYLLSRAGVTGAENRAALPLNHLVAKLKEYNAAPPLQGFGISAPDQVKAAIDAGAAGAISGSAIVKIIEQHINEPEKMLAALKVWVQPMKAATRS [F258W], the unfolding free energy was 7 kcal/mol.

The same series, now with this note: Escherichia coli (strain K12); pH 9; Thermal; DSC; Sodium tetraborate 1 mM; reversible: yes(>70%); structure 1WQ5; whole UniProt chain shown.
By Tm is commonly meant the temperature at which the thermal transition is half complete. Take MERYESLFAQLKERKEGAFVPFVTLGDPGIEQSLKIIDTLIEAGADALELGIPFSDPLADGPTIQNATLRAFAAGVTPAQCFEMLALIRQKHPTIPIGLLMYANLVFNNGIDEFYAQCEKVGVDSVLVADVPVEESAPFRQAALRHNVAPIFICPPNADDDLLRQIASYGRGYTYLLSRAGVTGAENRAALPLNHLVAKLKEYNAAPPLQGFGISAPDQVKAAIDAGAAGAISGSAIVKIIEQHINEPEKMLAALKVFVQPMKAATRS [K109N]: the midpoint of thermal melting (Tm) is 52.5 °C and the “change of melting temperature, mutant - wild type (higher = more stable)” value (“change of melting temperature, mutant” for short) was -1.5 °C.

The series is the same for the next values; noted with them: Escherichia coli (strain K12); pH 7.8; 25 °C; Urea; Fluorescence; Potassium phosphate 10 mM; transition: 3; reversible: yes; structure 1WQ5; whole UniProt chain shown.
As for MERYESLFAQLKERKEGAFVPFVTLGDPGIEQSLKIIDTLIEAGADALELGIPFSDPLADGPTIQNATLRAFAAGVTPAQCFEMLALIRQKHPTIPIGLLMYANLVFNKGIDEFYAQCEKVGVDSVLVADVPVEESAPWRQAALRHNVAPIFICPPNADDDLLRQIASYGRGYTYLLSRAGVTGAENRAALPLNHLVAKLKEYNAAPPLQGFGISAPDQVKAAIDAGAAGAISGSAIVKIIEQHINEPEKMLAALKVFVQPMKAATRS [F139W], the unfolding free energy is 5.6 kcal/mol and 4.9 kcal/mol.

Still in this series, the particulars now being: Escherichia coli (strain K12); pH 7; 25.8 °C; GdnHCl; CD; Potassium phosphate 0.01 M; reversible: yes; structure 1WQ5; whole UniProt chain shown.
Regarding MERYESLFAQLKERKEGAFVPFVTLGDPGIEQSLKIIDTLIEAGADALMLGIPFSDPLADGPTIQNATLRAFAAGVTPAQCFEMLALIRQKHPTIPIGLLMYANLVFNKGIDEFYAQCEKVGVDSVLVADVPVEESAPFRQAALRHNVAPIFICPPNADDDLLRQIASYGRGYTYLLSRAGVTGAENRAALPLNHLVAKLKEYNAAPPLQGFGISAPDQVKAAIDAGAAGAISGSAIVKIIEQHINEPEKMLAALKVFVQPMKAATRS [E49M], the “ddG of mutation (higher = less stable)” value is -4.6 kcal/mol and the unfolding free energy amounted to 13.4 kcal/mol.

In a further series the parent is B2. To be noted: Geobacillus stearothermophilus; pH 7.6; Thermal; DSC; TEA 100 mM; structure 1BTM; whole UniProt chain shown.
Regarding MRKPIIAGNWKMNKTLAEAVQFVEDVKGHVPPADEVISVVCAPFLFLDRLVQAADGTDLKIGAQTMHFADQGAYTGEVSPVMLKDLGVTYVILGHSERRQMFAETDETVNKKVLAAFTRGLIPIICCGESLEEREAGQTNAVVASQVEKALAGLTPEQVKQAVIAYEPIWAIGTGKSSTPEDANSVCGHIRSVVSRLFGPEAAEAIRIQYGGSVKPDNIRDFLAQQQIDGPLVGGASLEPASFLQLVEAGRHE [H13N], the Tm was determined as 77 °C and the “change of melting temperature, mutant” value turned out to be 1 °C.

Variants of B3 are the subject of another series. The note with it: Pseudoalteromonas haloplanktis; pH 7.2; Thermal; DSC; MOPS 30 mM; NaCl 50 mM; reversible: yes; structure 1AQH; whole UniProt chain shown.
Regarding Q82C A123C, the Tm was found to be 40 °C; the “change of melting temperature, mutant” value is -4 °C; the “unfolding enthalpy (calorimetric)” value is 78 kcal/mol.

The same series, now with this note: Pseudoalteromonas haloplanktis; pH 7.2; Thermal; DSC; Mops 30 mM; NaCl 50 mM; reversible: yes; structure 1AQH; whole UniProt chain shown.
Regarding K324R N174D V220F Q188I T256V, the Tm was 51.8 °C; the “change of melting temperature, mutant” value amounted to 7.8 °C; the “unfolding enthalpy (calorimetric)” value was determined as 277 kcal/mol.

In another series the parent is B4. The note with it: Homo sapiens; pH 7.4; Thermal; DSC; structure 3L81; whole UniProt chain shown.
MISQFFILSSKGDPLIYKDFRGDSGGRDVAELFYRKLTGLPGDESPVVMHHHGRHFIHIRHSGLYLVVTTSENVSPFSLLELLSRLATLLGDYCGSLGEGTISRNVALVYELLDEVLDYGYVQTTSTEMLRNFIQTEAVVSKPFSLFDLSSVGLFGAETQQSKVAPSSAASRPVLSSRSDQSQKNEVFLDVVERLSVLIASNGSLLKVDVQGEIRLKSFLPSGSEMRIGLTEEFCVGKSELRGYGPGIRVDEVSFHSSVNLDEFESHRILRLQPPQGELTVMDYQLSDDLPSPLPFRLFPSVQWDRGSGRLQVYLKLRCDLLSKSQALNVRLHLPLPRGVVSLSQELSSPEQKAELAEGALRWDLPRVQGGSQLSGLFQMDVPGPPGPPSHGLSTSASPLGLGPASLSFELPRHTCSGLQVRFLRLAFRPCGNANPHKWVRHLSHSDAYVIRI [R283D]: the Tm was 52.8 °C and the “change of melting temperature, mutant” value is -3 °C.
Take MISQFFILSSKGDPLIYKDFRGDSGGRDVAELFYRKLTGLPGDESPVVMHHHGRHFIHIRHSGLYLVVTTSENVSPFSLLELLSRLATLLGDYCGSLGEGTISRNVALVYELLDEVLDYGYVQTTSTEMLRNFIQTEAVVSKPFSLFDLSSVGLFGAETQQSKVAPSSAASRPVLSSRSDQSQKNEVFLAVVERLSVLIASNGSLLKVDVQGEIRLKSFLPSGSEMRIGLTEEFCVGKSELRGYGPGIRVDEVSFHSSVNLDEFESHRILRLQPPQGELTVMRYQLSDDLPSPLPFRLFPSVQWDRGSGRLQVYLKLRCDLLSKSQALNVRLHLPLPRGVVSLSQELSSPEQKAELAEGALRWDLPRVQGGSQLSGLFQMDVPGPPGPPSHGLSTSASPLGLGPASLSFELPRHTCSGLQVRFLRLAFRPCGNANPHKWVRHLSHSDAYVIRI [D190A]: the Tm worked out at 50.9 °C and the “change of melting temperature, mutant” value is -4.9 °C.
